Source: US20220289850 (published 2022)

Biological target: T1, cynomolgus integrin avb8 (cynomolgus)
T1 chain 1: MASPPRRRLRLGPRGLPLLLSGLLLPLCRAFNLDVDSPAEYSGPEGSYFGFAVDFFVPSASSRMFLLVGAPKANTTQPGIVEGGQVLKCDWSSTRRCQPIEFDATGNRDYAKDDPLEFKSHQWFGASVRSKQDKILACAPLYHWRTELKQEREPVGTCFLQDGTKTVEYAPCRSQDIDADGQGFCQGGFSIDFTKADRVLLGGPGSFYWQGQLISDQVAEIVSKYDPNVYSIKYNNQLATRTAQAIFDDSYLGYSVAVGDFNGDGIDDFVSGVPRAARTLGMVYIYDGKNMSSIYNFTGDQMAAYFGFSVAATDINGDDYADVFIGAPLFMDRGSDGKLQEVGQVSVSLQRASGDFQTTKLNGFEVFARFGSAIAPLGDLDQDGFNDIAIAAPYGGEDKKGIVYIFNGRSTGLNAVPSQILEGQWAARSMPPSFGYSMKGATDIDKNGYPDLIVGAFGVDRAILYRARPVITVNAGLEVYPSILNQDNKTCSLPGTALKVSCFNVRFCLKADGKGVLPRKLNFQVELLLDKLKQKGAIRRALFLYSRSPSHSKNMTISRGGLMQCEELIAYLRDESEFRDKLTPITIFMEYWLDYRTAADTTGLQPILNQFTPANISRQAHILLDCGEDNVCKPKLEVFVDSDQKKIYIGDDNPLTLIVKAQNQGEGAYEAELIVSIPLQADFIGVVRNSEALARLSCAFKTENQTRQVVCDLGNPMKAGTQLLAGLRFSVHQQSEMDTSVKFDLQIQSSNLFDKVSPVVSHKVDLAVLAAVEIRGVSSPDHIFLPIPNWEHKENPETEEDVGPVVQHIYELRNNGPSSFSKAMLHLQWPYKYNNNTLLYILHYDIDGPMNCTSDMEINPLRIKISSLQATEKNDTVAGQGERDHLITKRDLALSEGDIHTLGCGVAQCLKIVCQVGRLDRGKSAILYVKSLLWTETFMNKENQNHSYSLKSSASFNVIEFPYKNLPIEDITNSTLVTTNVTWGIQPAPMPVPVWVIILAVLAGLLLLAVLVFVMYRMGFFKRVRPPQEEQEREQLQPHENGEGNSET
T1 chain 2: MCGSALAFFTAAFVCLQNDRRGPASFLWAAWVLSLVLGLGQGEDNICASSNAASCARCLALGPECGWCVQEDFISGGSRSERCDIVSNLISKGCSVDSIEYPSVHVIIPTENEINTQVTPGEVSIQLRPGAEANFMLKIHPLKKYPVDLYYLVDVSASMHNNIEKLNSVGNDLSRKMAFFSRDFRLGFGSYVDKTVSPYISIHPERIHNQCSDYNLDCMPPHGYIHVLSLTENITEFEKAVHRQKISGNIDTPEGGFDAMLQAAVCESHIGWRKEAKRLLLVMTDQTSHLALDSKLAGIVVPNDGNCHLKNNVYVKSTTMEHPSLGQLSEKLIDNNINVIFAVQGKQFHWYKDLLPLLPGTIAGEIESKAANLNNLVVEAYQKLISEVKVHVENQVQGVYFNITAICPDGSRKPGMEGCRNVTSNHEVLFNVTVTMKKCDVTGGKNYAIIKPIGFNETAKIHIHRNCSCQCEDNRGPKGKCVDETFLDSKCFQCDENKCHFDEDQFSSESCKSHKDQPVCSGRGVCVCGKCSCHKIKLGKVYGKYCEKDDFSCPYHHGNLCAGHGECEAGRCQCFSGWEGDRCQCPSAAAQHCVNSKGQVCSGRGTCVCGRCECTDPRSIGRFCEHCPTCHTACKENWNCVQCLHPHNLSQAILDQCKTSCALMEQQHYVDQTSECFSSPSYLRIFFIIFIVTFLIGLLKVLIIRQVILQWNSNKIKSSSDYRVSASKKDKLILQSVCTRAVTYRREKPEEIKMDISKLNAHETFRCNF
Assay: SPR

- Kd: < 0.1 nM
B1: ADWA11 2.4 Fab (antibody, V domains shown)
VH: EVQLVESGGGLVQPGGSLRLSCAASGFNIKDYYMNWVRQAPGKGLEWVGWIDPDQGNTIYEPKFQGRFTISADTSKNSAYLQMNSLRAEDTAVYYCARRLLMDYWGQGTLVTVSS
VL: DIQMTQSPSSLSASVGDRVTITCRSTKSLSHFNGNTYLFWYQQKPGKAPKRLIYYMSSLASGVPSRFSGSGSGTDFTLTISSLQPEDFATYYCQQSLEYPFTFGGGTKVEIK
